Source: patent US20260104381, “ELECTRODEPOSITED METAL MODIFIED LASER SCRIBED GRAPHENE ELECTRODE AND METHOD” (KING ABDULLAH UNIVERSITY OF SCIENCE AND TECHNOLOGY, published 2026)

Biological target: HER2 (human epidermal growth factor receptor 2) (Homo sapiens, UniProt P04626 P04626:23-652)
Experiment: electrochemical SWV aptasensor; 0.1-200 ng/mL HER2 in 10 mM PBS pH 7.4, 1 h; MCH/BSA blocked; LOD 0.008 ng/mL; also detected in spiked undiluted human serum; protein source not stated
Settings: label: immobilized via thiol on gold nanostructured laser-scribed graphene electrode
Procedure: The concentrated Mercaptohexanol (MCH) solution was first prepared in ultrapure water and then further diluted in 10 mM PBS (pH 7.4). 4 μM of DNA aptamer 410 was mixed with 20 μM of MCH 412 prepared with 10 mM PBS (pH 7.4) to obtain a homogenized solution. As the next step, 6 μL from this mixture was placed in step 402 onto the LSG-AuNS modified working electrode 104 and incubated for 16 h, as shown in FIG. 4B. The MCH 412 covers a first part of the surface of the nanostructure 110 while the aptamer 410 covers a second part of the surface of the nanostructure 110. However, a third part of the surface of the nanostructure 110 is not covered by either of the MCH or the aptamer. The LSG-AuNS electrode surface was cleaned with 10 mM PBS (pH 7.4) to remove the excess of aptamer molecules 410 and MCH 412. The aptasensor was incubated in step 405 in 0.1 mg/mL of BSA solution 414 in 10 mM PBS (pH 7.4) for 45 min to cover a third part of the surface of the nanostructure 110, to reduce non-specific adsorption, as illustrated in FIG. 4C. In one application, the sum of the surfaces of the first to third parts covers the entire surface of the nanostructure 110. However, in another application, the sum of the first to third parts cover less than the entire surface of the nanostructure 110. Finally, the aptamer modified electrode 104 was washed with 10 mM PBS (pH 7.4) for at least five times. […]

B1: thiol-modified anti-Her-2 DNA aptamer (APT) (ssDNA)
DNA: AACCGCCCAAATCCCTAAGAGTCTGCACTTGTCATTTTGTATATGTATTTGGTTTTTGGCTCTCACAGACACACTACACACGCACA
modifications: 5'-ThiC6 (thiol C6 linker)
B1: binds.
